Results on one substance are retold here after doi:10.1101/2022.02.02.478753.

The term stoichiometry N denotes a count of units in the complex or per binding partner.

This test has as its target holoTvFDPF3, highly active Class F flavodiiron protein 3 from Trichomonas vaginalis (TVAG_121610) (Trichomonas vaginalis). Description: cryo-EM structure.

“holoTvFDPF3, highly active Class F flavodiiron protein 3 from Trichomonas vaginalis (TVAG_121610) (enzyme)”: the stoichiometry N is 2.
